The values below come from PMC6420652.

The term Kd denotes the constant that tells how readily two partners part at equilibrium.

Experiment [1] concerns the target antizyme-mRuby2 (antizyme with a C-terminal mRuby2 tag) (UniProt P54368). Nature of the experiment: FRET titration. The following applies: parent: est. 24; read off a plot.
Experiment [2] has as its target AZIN (Homo sapiens) (UniProt O14977). The experiment is described as follows: ultracentrifugation. The following applies: cited from earlier work.

Chain of antizyme-mRuby2 (antizyme with a C-terminal mRuby2 tag) (P54368 whole entry): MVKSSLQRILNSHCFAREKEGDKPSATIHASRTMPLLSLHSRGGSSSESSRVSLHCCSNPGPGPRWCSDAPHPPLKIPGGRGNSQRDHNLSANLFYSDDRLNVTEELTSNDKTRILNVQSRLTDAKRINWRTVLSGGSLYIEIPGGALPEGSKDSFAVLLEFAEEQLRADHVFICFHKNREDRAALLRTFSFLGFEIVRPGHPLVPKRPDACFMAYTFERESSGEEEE
Chain of Antizyme (P54368 whole entry): as above
Chain of AZIN (Homo sapiens) (O14977 whole entry): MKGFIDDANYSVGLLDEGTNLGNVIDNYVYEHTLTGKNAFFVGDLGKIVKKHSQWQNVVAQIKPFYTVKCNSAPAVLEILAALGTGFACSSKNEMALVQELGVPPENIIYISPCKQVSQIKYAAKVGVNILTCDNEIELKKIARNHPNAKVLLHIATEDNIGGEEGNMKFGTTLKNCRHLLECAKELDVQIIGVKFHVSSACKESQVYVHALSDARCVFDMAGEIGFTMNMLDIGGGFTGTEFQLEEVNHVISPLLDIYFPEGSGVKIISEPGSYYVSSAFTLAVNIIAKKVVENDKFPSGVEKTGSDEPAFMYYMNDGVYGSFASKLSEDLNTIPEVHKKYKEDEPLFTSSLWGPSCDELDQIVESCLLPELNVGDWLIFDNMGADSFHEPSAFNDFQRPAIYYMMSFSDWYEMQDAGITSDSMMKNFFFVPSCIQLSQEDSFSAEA
Chain of Clover-AZIN (antizyme inhibitor with an N-terminal Clover tag) (O14977 whole entry, stated change not applied): as the sequence (O14977 whole entry) above

As to “Clover-AZIN (antizyme inhibitor with an N-terminal Clover tag) (from UniProt O14977) V137A”, the Kd in experiment [1] was 11 nM.

With Antizyme (from UniProt P54368), the dissociation constant (Kd) in experiment [2] was 20 nM.
